Assay results published in article PMC6019071.
pKi: −log10 of the molar value.

Columns and labels:
[1] = target: core CoREST complex LSD1/HDAC1/CoREST1 (LHC) (UniProt O60341); test: enzyme inhibition (fluorogenic HDAC deacetylation assay); LHC (1 nM) pretreated 30 min on ice with inhibitor in 50 mM HEPES 7.5, 100 mM KCl, 100 uM InsP6, 0.2 mg/mL BSA; 50 uM fluorogenic peptide substrate, 37 C, 15 min; Ki = IC50/([S]/Km + 1), competitive model
[2] = target: core CoREST complex LSD1/HDAC1/CoREST1 (LHC) (UniProt O60341); test: enzyme inhibition (fluorogenic HDAC deacetylation assay); Dixon plot of LHC inhibition by H3K14Hd-modified nucleosomes versus peptide substrate

fold lower Ki than the corresponding Hd nucleosome [1] [fold] | pKi [2] | pKi [1] | Substance
30 |  |  | H3K4me2K14Hd(1-34) synthetic H3 peptide (from UniProt P84233 2-35)
 | 7.46 | 7.40 | H3K14Hd containing nucleosome (146 bp mononucleosome with semisynthetic H3K4me2K14Hd) (complex)
30 |  |  | semisynthetic histone H3 H3K4me2K14Hd (from UniProt P84233 2-136) (natural protein)

Further lines, the substance ahead of its results:

Substance | fold lower Ki than the corresponding Hd nucleosome [1] [fold] | pKi [2] | pKi [1]
H3K4me2K9Hd(1-34) synthetic H3 peptide (from UniProt P84233 2-35) | 30 |  | 
H3K9Hd containing nucleosome (146 bp mononucleosome with semisynthetic H3K4me2K9Hd) (complex) |  |  | 7.22
